According to article PMC6042069:
Residue numbers refer to the chain shown, from its start. Read-outs that look alike come from different tables or passages of the source.

Legend:
Test in all cases: EMSA
PPARγ2;RXRα [1] = biological target: T1, PPARγ2;RXRα (mouse;human, UniProt P37238;P19793 1-505;1-462, |)
PPARγ2;RXRα [2] = biological target: T1, PPARγ2;RXRα; remark: listed apart in the source
PPARγ2;RXRα [3] = biological target: T1, PPARγ2;RXRα; remark: listed apart in the source

B1: LepRE1 DR1 (GOF) (dsDNA)
DNA 1: AAGATTTGAACTTTGAACTGAATTGGCTGCAGC
DNA 2: GCTGCAGCCAATTCAGTTCAAAGTTCAAATCTT
B1: binds (PPARγ2;RXRα [1]).

B2: LepRE1 LOF (dsDNA)
DNA 1: AAGATTTGAAATTTCCGCAGAATTGGCTGCAGC
DNA 2: GCTGCAGCCAATTCTGCGGAAATTTCAAATCTT
B2: no binding (PPARγ2;RXRα [2]).

B3: LepRE1 EXT (dsDNA)
DNA 1: B2 DNA 1 with A11C, A21G
DNA 2: B2 DNA 2 with T13C, T23G
B3: binds (PPARγ2;RXRα [3]).
